Laboratory results as given in publication PMC9352680, “A comprehensive thermodynamic model for RNA binding by the Saccharomyces cerevisiae Pumilio protein PUF4”.

T1: PUF4 RNA-binding domain (Saccharomyces cerevisiae, UniProt P25339 537-888)
T1 sequence: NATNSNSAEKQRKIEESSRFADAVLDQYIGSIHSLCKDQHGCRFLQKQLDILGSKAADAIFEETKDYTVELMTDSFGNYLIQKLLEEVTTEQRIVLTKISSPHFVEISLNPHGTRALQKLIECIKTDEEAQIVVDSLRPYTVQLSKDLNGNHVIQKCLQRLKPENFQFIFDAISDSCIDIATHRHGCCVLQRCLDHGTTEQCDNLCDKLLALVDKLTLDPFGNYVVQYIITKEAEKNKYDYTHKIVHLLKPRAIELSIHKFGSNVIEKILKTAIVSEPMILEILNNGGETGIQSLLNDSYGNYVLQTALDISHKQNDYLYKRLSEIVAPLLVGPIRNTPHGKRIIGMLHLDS


Molecular target: T1, PUF4 RNA-binding domain
Assay: Mg; RNA-MaP; 20 mM Na-HEPES pH 7.4, 30 mM KOAc, 0.75 mM MgCl2, 0.1% Tween-20, 5% glycerol, 0.1 mg/mL BSA, 2 mM DTT; 25 C; 0.0125-409.6 nM protein
Details: tags: N-His6-TEV cleaved; C-SNAP kept, Cy3B-labelled; label: tethered on chip by stalled RNA polymerase

Binder | Kd
Ie_S2_P4E.1_K4.1_C4.1_H4.1_[+1TC]_A4.1_F4.1_T4.1 (ssRNA) RNA: UUUGAUUAAUAUGAUAUCGUUCUUUCUUUCGUAUAUUAUUCUUUCUCGAUAUCAUAUUAAUCUUU | 8.48 nM
Ie_S2_P3E.2_K3.1_C3.2_H3.1_A3.1_[+5CC]_F3.1_T3.2 (ssRNA) RNA: UUUGAUUAAUAUGAUAUCGUUCUUUCUCUUGUAUCCAUAUAUUCUUUCUCGAUAUCAUAUUAAUCUUU | 7.04 nM
Ie_S2_P3E.2_K3.1_C3.2_H3.1_A3.1_F3.1_[+8TC]_T3.2 (ssRNA) RNA: UUUGAUUAAUAUGAUAUCGUUCUUUCUCUUGUAUAUAUCUAUUCUUUCUCGAUAUCAUAUUAAUCUUU | 2.05 nM
Ie_S2_P3E.2_K3.1_C3.2_H3.1_A3.1_F3.1_[+8TT]_T3.2 (ssRNA) RNA: UUUGAUUAAUAUGAUAUCGUUCUUUCUCUUGUAUAUAUUUAUUCUUUCUCGAUAUCAUAUUAAUCUUU | 1.56 nM
Ie_S2_P3E.2_K3.1_C3.2_H3.1_A3.1_F3.1_[+7CC]_T3.2 (ssRNA) RNA: UUUGAUUAAUAUGAUAUCGUUCUUUCUCUUGUAUAUCCAUAUUCUUUCUCGAUAUCAUAUUAAUCUUU | 17.5 nM
Ie_S2_P3E.2_K3.1_C3.2_H3.1_A3.1_F3.1_[+7CT]_T3.2 (ssRNA) RNA: UUUGAUUAAUAUGAUAUCGUUCUUUCUCUUGUAUAUCUAUAUUCUUUCUCGAUAUCAUAUUAAUCUUU | 3.3 nM
Ie_S2_P3E.2_K3.1_C3.2_H3.1_A3.1_F3.1_[+8CT]_T3.2 (ssRNA) RNA: UUUGAUUAAUAUGAUAUCGUUCUUUCUCUUGUAUAUACUUAUUCUUUCUCGAUAUCAUAUUAAUCUUU | 3.03 nM
Ie_S2_P3E.2_K3.1_C3.2_H3.1_[+4CCTC]_A3.1_F3.1_T3.2 (ssRNA) RNA: UUUGAUUAAUAUGAUAUCGUUCUUUCUCUUGUACCUCUAUAUAUUCUUUCUCGAUAUCAUAUUAAUCUUU | 4.82 nM
Ie_S2_P3E.2_K3.1_C3.2_H3.1_[+4CCCT]_A3.1_F3.1_T3.2 (ssRNA) RNA: UUUGAUUAAUAUGAUAUCGUUCUUUCUCUUGUACCCUUAUAUAUUCUUUCUCGAUAUCAUAUUAAUCUUU | 2.61 nM
Ie_S2_P3E.2_K3.1_C3.2_H3.1_A3.1_F3.1_[+8CCTC]_T3.2 (ssRNA) RNA: UUUGAUUAAUAUGAUAUCGUUCUUUCUCUUGUAUAUACCUCUAUUCUUUCUCGAUAUCAUAUUAAUCUUU | 4.3 nM
Ie_S2_P3E.2_K3.1_C3.2_H3.1_A3.1_F3.1_[+8TTCC]_T3.2 (ssRNA) RNA: UUUGAUUAAUAUGAUAUCGUUCUUUCUCUUGUAUAUAUUCCUAUUCUUUCUCGAUAUCAUAUUAAUCUUU | 2.56 nM
Ie_S2_P3E.2_K3.1_C3.2_H3.1_A3.1_F3.1_[+8TCTC]_T3.2 (ssRNA) RNA: UUUGAUUAAUAUGAUAUCGUUCUUUCUCUUGUAUAUAUCUCUAUUCUUUCUCGAUAUCAUAUUAAUCUUU | 3.5 nM
Ie_S2_P4E.1_K4.1_C4.1_H4.1_[+1T]_A4.1_F4.1_T4.1 (ssRNA) RNA: UUUGAUUAAUAUGAUAUCGUUCUUUCUUUGUAUAUUAUUCUUUCUCGAUAUCAUAUUAAUCUUU | 0.232 nM
Ic_S2_P3E.1_K3.1_C3.1_H3.1_A3.1_[T5C]_F3.1_[A8G]_T3.1 (ssRNA) RNA: UUUGAUUAAUAUGAUAUCGUUCUUUCUUGUACAUGUUCUUUCUCGAUAUCAUAUUAAUCUUU | 10.4 nM
Ia_S2_P3E.1_K3.1_C3.1_H3.1_[G2T]_A3.1_F3.1_T3.1 (ssRNA) RNA: UUUGAUUAAUAUGAUAUCGUUCUUUCUUUUAUAUAUUCUUUCUCGAUAUCAUAUUAAUCUUU | 366 nM
Ic_S2_P3E.1_K3.1_C3.1_H3.1_A3.1_[A6G]_F3.1_[A8G]_T3.1 (ssRNA) RNA: UUUGAUUAAUAUGAUAUCGUUCUUUCUUGUAUGUGUUCUUUCUCGAUAUCAUAUUAAUCUUU | 44.9 nM
Ib_S2_P3E.1_K3.1_C3.1_H3.1_A3.1_[T5C]_F3.1_[A8T]_T3.1 (ssRNA) RNA: UUUGAUUAAUAUGAUAUCGUUCUUUCUUGUACAUUUUCUUUCUCGAUAUCAUAUUAAUCUUU | 1.62 nM
Ic_S2_P3E.1_K3.1_C3.1_H3.1_A3.1_[T5C]_F3.1_[A8C]_T3.1 (ssRNA) RNA: UUUGAUUAAUAUGAUAUCGUUCUUUCUUGUACAUCUUCUUUCUCGAUAUCAUAUUAAUCUUU | 11.1 nM
Ie_S2_P4E.1_K4.1_C4.1_H4.1_[+1CCTC]_A4.1_F4.1_T4.1 (ssRNA) RNA: UUUGAUUAAUAUGAUAUCGUUCUUUCUUCCUCGUAUAUUAUUCUUUCUCGAUAUCAUAUUAAUCUUU | 5.67 nM
Ie_S2_P3E.2_K3.1_C3.2_H3.1_[+4CCCTT]_A3.1_F3.1_T3.2 (ssRNA) RNA: UUUGAUUAAUAUGAUAUCGUUCUUUCUCUUGUACCCUUUAUAUAUUCUUUCUCGAUAUCAUAUUAAUCUUU | 6.09 nM
Ie_S2_P3E.2_K3.1_C3.2_H3.1_A3.1_F3.1_[+8CCCTT]_T3.2 (ssRNA) RNA: UUUGAUUAAUAUGAUAUCGUUCUUUCUCUUGUAUAUACCCUUUAUUCUUUCUCGAUAUCAUAUUAAUCUUU | 3.77 nM
Ie_S2_P3E.2_K3.1_C3.2_H3.1_A3.1_F3.1_[+8CTCTC]_T3.2 (ssRNA) RNA: UUUGAUUAAUAUGAUAUCGUUCUUUCUCUUGUAUAUACUCUCUAUUCUUUCUCGAUAUCAUAUUAAUCUUU | 5.38 nM

Binder | Kd
Ie_S2_P3E.2_K3.1_C3.2_H3.1_A3.1_F3.1_[+8TTCCT]_T3.2 (ssRNA) RNA: UUUGAUUAAUAUGAUAUCGUUCUUUCUCUUGUAUAUAUUCCUUAUUCUUUCUCGAUAUCAUAUUAAUCUUU | 2.02 nM
Ie_S2_P3E.2_K3.1_C3.2_H3.1_A3.1_F3.1_[+8TCTCT]_T3.2 (ssRNA) RNA: UUUGAUUAAUAUGAUAUCGUUCUUUCUCUUGUAUAUAUCUCUUAUUCUUUCUCGAUAUCAUAUUAAUCUUU | 3.44 nM
Ie_S2_P3E.2_K3.1_C3.2_H3.1_A3.1_F3.1_[+8CCTCT]_T3.2 (ssRNA) RNA: UUUGAUUAAUAUGAUAUCGUUCUUUCUCUUGUAUAUACCUCUUAUUCUUUCUCGAUAUCAUAUUAAUCUUU | 4.17 nM
Ie_S2_P4E.1_K4.1_C4.1_H4.1_[+1CCT]_A4.1_F4.1_T4.1 (ssRNA) RNA: UUUGAUUAAUAUGAUAUCGUUCUUUCUUCCUGUAUAUUAUUCUUUCUCGAUAUCAUAUUAAUCUUU | 0.245 nM
Ie_S2_P4E.1_K4.1_C4.1_H4.1_[+1TTC]_A4.1_F4.1_T4.1 (ssRNA) RNA: UUUGAUUAAUAUGAUAUCGUUCUUUCUUUUCGUAUAUUAUUCUUUCUCGAUAUCAUAUUAAUCUUU | 7.09 nM
Ie_S2_P4E.1_K4.1_C4.1_H4.1_[+1CTT]_A4.1_F4.1_T4.1 (ssRNA) RNA: UUUGAUUAAUAUGAUAUCGUUCUUUCUUCUUGUAUAUUAUUCUUUCUCGAUAUCAUAUUAAUCUUU | 0.196 nM
Ie_S2_P4E.1_K4.1_C4.1_H4.1_[+1TCT]_A4.1_F4.1_T4.1 (ssRNA) RNA: UUUGAUUAAUAUGAUAUCGUUCUUUCUUUCUGUAUAUUAUUCUUUCUCGAUAUCAUAUUAAUCUUU | 0.234 nM
Ie_S2_P3E.2_K3.1_C3.2_H3.1_A3.1_[+5C]_F3.1_T3.2 (ssRNA) RNA: UUUGAUUAAUAUGAUAUCGUUCUUUCUCUUGUAUCAUAUAUUCUUUCUCGAUAUCAUAUUAAUCUUU | 0.639 nM
Ie_S2_P3E.2_K3.1_C3.2_H3.1_A3.1_F3.1_[+7C]_T3.2 (ssRNA) RNA: UUUGAUUAAUAUGAUAUCGUUCUUUCUCUUGUAUAUCAUAUUCUUUCUCGAUAUCAUAUUAAUCUUU | 5.11 nM
Ie_S2_P3E.2_K3.1_C3.2_H3.1_A3.1_F3.1_[+8C]_T3.2 (ssRNA) RNA: UUUGAUUAAUAUGAUAUCGUUCUUUCUCUUGUAUAUACUAUUCUUUCUCGAUAUCAUAUUAAUCUUU | 2.93 nM
Ie_S2_P3E.2_K3.1_C3.2_H3.1_A3.1_[+6C]_F3.1_T3.2 (ssRNA) RNA: UUUGAUUAAUAUGAUAUCGUUCUUUCUCUUGUAUACUAUAUUCUUUCUCGAUAUCAUAUUAAUCUUU | 0.437 nM
Ie_S2_P3E.2_K3.1_C3.2_H3.1_A3.1_F3.1_[+8T]_T3.2 (ssRNA) RNA: UUUGAUUAAUAUGAUAUCGUUCUUUCUCUUGUAUAUAUUAUUCUUUCUCGAUAUCAUAUUAAUCUUU | 1.66 nM
Ie_S2_P3E.2_K3.1_C3.2_H3.1_A3.1_F3.1_[+7CCC]_T3.2 (ssRNA) RNA: UUUGAUUAAUAUGAUAUCGUUCUUUCUCUUGUAUAUCCCAUAUUCUUUCUCGAUAUCAUAUUAAUCUUU | 19.5 nM
Ie_S2_P3E.2_K3.1_C3.2_H3.1_A3.1_F3.1_[+7TTC]_T3.2 (ssRNA) RNA: UUUGAUUAAUAUGAUAUCGUUCUUUCUCUUGUAUAUUUCAUAUUCUUUCUCGAUAUCAUAUUAAUCUUU | 9.85 nM
Ie_S2_P3E.2_K3.1_C3.2_H3.1_A3.1_F3.1_[+8CTC]_T3.2 (ssRNA) RNA: UUUGAUUAAUAUGAUAUCGUUCUUUCUCUUGUAUAUACUCUAUUCUUUCUCGAUAUCAUAUUAAUCUUU | 5.33 nM
Ie_S2_P3E.2_K3.1_C3.2_H3.1_A3.1_F3.1_[+8TCT]_T3.2 (ssRNA) RNA: UUUGAUUAAUAUGAUAUCGUUCUUUCUCUUGUAUAUAUCUUAUUCUUUCUCGAUAUCAUAUUAAUCUUU | 2.19 nM
Ie_S2_P3E.2_K3.1_C3.2_H3.1_A3.1_F3.1_[+8CCT]_T3.2 (ssRNA) RNA: UUUGAUUAAUAUGAUAUCGUUCUUUCUCUUGUAUAUACCUUAUUCUUUCUCGAUAUCAUAUUAAUCUUU | 2.8 nM
Ie_S2_P3E.2_K3.1_C3.2_H3.1_A3.1_F3.1_[+7CTC]_T3.2 (ssRNA) RNA: UUUGAUUAAUAUGAUAUCGUUCUUUCUCUUGUAUAUCUCAUAUUCUUUCUCGAUAUCAUAUUAAUCUUU | 14 nM
Ie_S2_P3E.2_K3.1_C3.2_H3.1_A3.1_F3.1_[+7TCC]_T3.2 (ssRNA) RNA: UUUGAUUAAUAUGAUAUCGUUCUUUCUCUUGUAUAUUCCAUAUUCUUUCUCGAUAUCAUAUUAAUCUUU | 6.48 nM
Ie_S2_P3E.2_K3.1_C3.2_H3.1_A3.1_F3.1_[+8CCC]_T3.2 (ssRNA) RNA: UUUGAUUAAUAUGAUAUCGUUCUUUCUCUUGUAUAUACCCUAUUCUUUCUCGAUAUCAUAUUAAUCUUU | 7.81 nM
Ie_S2_P3E.2_K3.1_C3.2_H3.1_A3.1_F3.1_[+8TTC]_T3.2 (ssRNA) RNA: UUUGAUUAAUAUGAUAUCGUUCUUUCUCUUGUAUAUAUUCUAUUCUUUCUCGAUAUCAUAUUAAUCUUU | 2.96 nM
Ie_S2_P3E.2_K3.1_C3.2_H3.1_A3.1_F3.1_[+8TCC]_T3.2 (ssRNA) RNA: UUUGAUUAAUAUGAUAUCGUUCUUUCUCUUGUAUAUAUCCUAUUCUUUCUCGAUAUCAUAUUAAUCUUU | 2.84 nM
